Results from doi:10.1101/2023.01.06.522972 (bioRxiv, 2023).

B2: Leishmania major profilin, wild type (natural protein)
chain: SWQAYVDDSLIGSGNMHSAAIIGAADGSYWAYGGSYVPQPEEVQHIQKCLSDFSFVQSSGVNIYGVKFFGLQCGTDGDCKYIFFKKGAAGGCIYTTKQAFIVAVYGNPGDTSSLQQDLEKNTAHAVTVNPADCNTTVKRIADYLIKLGY
notes: also called LmProfilin; LmProf-WT

Key:
Details in all cases: both partners purified
[1] = molecular target: B2; assay: other fluorescence titration
Leishmania major actin [2] = molecular target: T1, Leishmania major actin (Leishmania major, UniProt P45520 2-376); assay: ITC
T1 construct: also called LmActin; Leishmania actin
T1 sequence (P45520 2-376): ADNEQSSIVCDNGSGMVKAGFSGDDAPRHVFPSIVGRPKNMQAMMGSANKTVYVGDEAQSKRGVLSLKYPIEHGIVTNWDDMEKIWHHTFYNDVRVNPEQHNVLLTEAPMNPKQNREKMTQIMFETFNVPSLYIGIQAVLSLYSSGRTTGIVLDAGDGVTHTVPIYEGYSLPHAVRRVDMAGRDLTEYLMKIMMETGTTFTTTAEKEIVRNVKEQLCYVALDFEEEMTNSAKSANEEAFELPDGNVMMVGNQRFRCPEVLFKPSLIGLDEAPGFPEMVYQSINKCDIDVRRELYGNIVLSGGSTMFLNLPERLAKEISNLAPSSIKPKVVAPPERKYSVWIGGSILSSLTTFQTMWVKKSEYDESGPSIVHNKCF

Leishmania major actin [3] = molecular target: T1, Leishmania major actin; assay: crystal structure

B1: poly-L-proline decamer peptide (peptide)
peptide: PPPPPPPPPP
notes: also called poly-L-proline peptide; poly-proline decamer
- Kd [1]: 242 ± 38.4 µM

Binder: B2
- Kd (Leishmania major actin [2]): ~0.08 µM
- stoichiometry N (Leishmania major actin [3]): 1
